Laboratory results taken from the supplement of paper PMC10567573.

B1: IKZF1 (parent)
chain: HIKLHSGEKPFKCHLCNYACRRRD

Variants of: B1
Test: protein stability index of a GFP-peptide fusion (GPS, HEK-293T) (PSI 1-6); higher = more stable
Conditions: c terminus: a fixed tail appended
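Note: lentivirally expressed fusions sorted by FACS into six bins by GFP to DsRed ratio, PSI derived from sequencing read proportions per bin multiplied by bin number.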

Point of comparison: HIKLHSGEKPFKCHLYNYACRRRD, protein stability index 1.88. Against it:
- HIKLHSGEKPFKCHYCNYACRRRD — lower, 1.63
- HIKLHSGEKPFKCHMCNYACRRRD — lower, 1.36
- HIKLHSGEKPFKCHDCNYACRRRD — lower, 1.74
- HIKLHSGEKPFKCHRCNYACRRRD — higher, 2.3
- HIKLHSGEKPFKCHCCNYACRRRD — higher, 2.66
- HIKLHSGEKPFKCHPCNYACRRRD — higher, 2.64
- HIKLHSGEKPFKCHKCNYACRRRD — higher, 2.68
- HIKLHSGEKPFKCHICNYACRRRD — higher, 2.44
- HIKLHSGEKPFKCHGCNYACRRRD — higher, 2.43
- HIKLHSGEKPFKCHSCNYACRRRD — higher, 2.11
- HIKLHSGEKPFKCHQCNYACRRRD — higher, 2.47
- HIKLHSGEKPFKCHHCNYACRRRD — higher, 2.14
- HIKLHSGEKPFKCHTCNYACRRRD — higher, 2.92
- HIKLHSGEKPFKCHNCNYACRRRD — higher, 2.27
- HIKLHSGEKPFKCHWCNYACRRRD — higher, 2.44
- HIKLHSGEKPFKCHACNYACRRRD — higher, 2.28
- HIKLHSGEKPFKCHFCNYACRRRD — higher, 1.89
- HIKLHSGEKPFKCHECNYACRRRD — higher, 2.5
- HIKLHSGEKPFKCHVCNYACRRRD — lower, 1.78
- HIKLHSGEKPFKKHLCNYACRRRD — higher, 3
- HIKLHSGEKPFKHHLCNYACRRRD — higher, 2.79
- HIKLHSGEKPFKNHLCNYACRRRD — higher, 3.53
- HIKLHSGEKPFKPHLCNYACRRRD — higher, 2.97
- HIKLHSGEKPFKWHLCNYACRRRD — higher, 2.73
- HIKLHSGEKPFKEHLCNYACRRRD — higher, 2.58
- HIKLHSGEKPFKRHLCNYACRRRD — higher, 2.26
- HIKLHSGEKPFKMHLCNYACRRRD — higher, 2.15
- HIKLHSGEKPFKDHLCNYACRRRD — higher, 3.34
- HIKLHSGEKPFKAHLCNYACRRRD — higher, 2.28
- HIKLHSGEKPFKFHLCNYACRRRD — higher, 2.01
- HIKLHSGEKPFKQHLCNYACRRRD — higher, 2.75
- HIKLHSGEKPFKGHLCNYACRRRD — higher, 3.04
- HIKLHSGEKPFKTHLCNYACRRRD — higher, 2.91
- HIKLHSGEKPFKIHLCNYACRRRD — higher, 2.28
- HIKLHSGEKPFKLHLCNYACRRRD — lower, 1.85
- HIKLHSGEKPFKVHLCNYACRRRD — higher, 2.21
- HIKLHSGEKPFKSHLCNYACRRRD — higher, 2.36
- HIKLHSGEKPFKYHLCNYACRRRD — lower, 1.77
- HIKLHSGEKPEKCHLCNYACRRRD — higher, 2.17
- HIKLHSGEKPSKCHLCNYACRRRD — lower, 1.64
- HIKLHSGEKPIKCHLCNYACRRRD — lower, 1.46
- HIKLHSGEKPHKCHLCNYACRRRD — higher, 2.2
- HIKLHSGEKPLKCHLCNYACRRRD — higher, 2.12
- HIKLHSGEKPGKCHLCNYACRRRD — higher, 2.06
- HIKLHSGEKPCKCHLCNYACRRRD — lower, 1.83
- HIKLHSGEKPNKCHLCNYACRRRD — lower, 1.77
- HIKLHSGEKPRKCHLCNYACRRRD — lower, 1.74
- HIKLHSGEKPMKCHLCNYACRRRD — higher, 2.21
- HIKLHSGEKPQKCHLCNYACRRRD — higher, 2.41
- HIKLHSGEKPKKCHLCNYACRRRD — higher, 2.6
- HIKLHSGEKPVKCHLCNYACRRRD — lower, 1.46
- HIKLHSGEKPYKCHLCNYACRRRD — lower, 1.52
- HIKLHSGEKPTKCHLCNYACRRRD — lower, 1.85
- HIKLHSGEKPPKCHLCNYACRRRD — lower, 1.67
- HIKLHSGEKPDKCHLCNYACRRRD — higher, 2.15
- HIKLHSGEKPFKCHLCNYAERRRD — lower, 1.83
- HIKLHSGEKPFKCHLCNYAQRRRD — higher, 2.39
- HIKLHSGEKPFKCHLCNYALRRRD — lower, 1.63
- HIKLHSGEKPFKCHLCNYAVRRRD — higher, 2.89
- HIKLHSGEKPFKCHLCNYAFRRRD — higher, 2.25
- HIKLHSGEKPFKCHLCNYAGRRRD — higher, 1.96
- HIKLHSGEKPFKCHLCNYADRRRD — lower, 1.59
- HIKLHSGEKPFKCHLCNYASRRRD — lower, 1.69
- HIKLHSGEKPFKCHLCNYAKRRRD — lower, 1.64
- HIKLHSGEKPFKCHLCNYARRRRD — higher, 1.96
- HIKLHSGEKPFKCHLCNYAMRRRD — higher, 2.5
- HIKLHSGEKPFKCHLCNYATRRRD — higher, 2.08
- HIKLHSGEKPFKCHLCNYAYRRRD — lower, 1.86
- HIKLHSGEKPFKCHLCNYAWRRRD — higher, 2.83
- HIKLHSGEKPFKCHLCNYAARRRD — higher, 2.41
- HIKLHSGEKPFKCHLCNYAPRRRD — higher, 3.08
- HIKLHSGEKPFKCHLCNYANRRRD — higher, 2.35
- HIKLHSGEKPFKCHLCNYAHRRRD — higher, 1.94
- HIKLHSGEKPFNCHLCNYACRRRD — lower, 1.67
- HIKLHSGEKPFYCHLCNYACRRRD — higher, 2.13
- HIKLHSGEKPFCCHLCNYACRRRD — higher, 2.32
- HIKLHSGEKPFECHLCNYACRRRD — higher, 2.29
- HIKLHSGEKPFTCHLCNYACRRRD — lower, 1.68
- HIKLHSGEKPFLCHLCNYACRRRD — lower, 1.82
- HIKLHSGEKPFRCHLCNYACRRRD — higher, 2.23
- HIKLHSGEKPFVCHLCNYACRRRD — higher, 2.21
- HIKLHSGEKPFGCHLCNYACRRRD — higher, 2.38
- HIKLHSGEKPFWCHLCNYACRRRD — lower, 1.59
- HIKLHSGEKPFICHLCNYACRRRD — lower, 1.78
- HIKLHSGEKPFFCHLCNYACRRRD — higher, 2.25
- HIKLHSGEKPFACHLCNYACRRRD — lower, 1.77
- HIKLHSGEKPFSCHLCNYACRRRD — higher, 1.95
- HIKLHSGEKPFDCHLCNYACRRRD — lower, 1.68
- HIKLHSGEKPFMCHLCNYACRRRD — higher, 2.02
- HIKLHSGEKPFPCHLCNYACRRRD — lower, 1.78
- HIKLHSGEKPFHCHLCNYACRRRD — lower, 1.7
- HIKLHSGEKPFQCHLCNYACRRRD — higher, 2.28
- HIKLHSGEKPFKCHLLNYACRRRD — higher, 2.26
- HIKLHSGEKPFKCHLPNYACRRRD — higher, 2.2
- HIKLHSGEKPFKCHLKNYACRRRD — higher, 2.91
- HIKLHSGEKPFKCHLNNYACRRRD — higher, 2.8
- HIKLHSGEKPFKCHLRNYACRRRD — higher, 2.81
- HIKLHSGEKPFKCHLDNYACRRRD — higher, 2.98
- HIKLHSGEKPFKCHLENYACRRRD — higher, 3.02
- HIKLHSGEKPFKCHLINYACRRRD — higher, 2.35
- HIKLHSGEKPFKCHLTNYACRRRD — higher, 2.8
- HIKLHSGEKPFKCHLGNYACRRRD — higher, 3.03
- HIKLHSGEKPFKCHLWNYACRRRD — higher, 2.14
- HIKLHSGEKPFKCHLHNYACRRRD — higher, 2.29
- HIKLHSGEKPFKCHLMNYACRRRD — higher, 2.04
- HIKLHSGEKPFKCHLFNYACRRRD — higher, 2.05
- HIKLHSGEKPFKCHLSNYACRRRD — higher, 2.96
- HIKLHSGEKPFKCHLQNYACRRRD — higher, 2.12
- HIKLHSGEKPFKCHLANYACRRRD — higher, 2.04
- HIKLHSGEKPFKCHLVNYACRRRD — lower, 1.81
- HIKLHSGEKPFKCHLCNYFCRRRD — higher, 2.07
- HIKLHSGEKPFKCHLCNYGCRRRD — lower, 1.49
- HIKLHSGEKPFKCHLCNYTCRRRD — lower, 1.81
- HIKLHSGEKPFKCHLCNYHCRRRD — lower, 1.85
- HIKLHSGEKPFKCHLCNYICRRRD — higher, 2.13
- HIKLHSGEKPFKCHLCNYWCRRRD — higher, 2.52
- HIKLHSGEKPFKCHLCNYQCRRRD — lower, 1.67
- HIKLHSGEKPFKCHLCNYNCRRRD — higher, 2.27
- HIKLHSGEKPFKCHLCNYMCRRRD — the same, 1.88
- HIKLHSGEKPFKCHLCNYYCRRRD — lower, 1.32
- HIKLHSGEKPFKCHLCNYSCRRRD — higher, 1.94
- HIKLHSGEKPFKCHLCNYECRRRD — higher, 2.1
- HIKLHSGEKPFKCHLCNYPCRRRD — lower, 1.71
- HIKLHSGEKPFKCHLCNYCCRRRD — lower, 1.64
- HIKLHSGEKPFKCHLCNYRCRRRD — higher, 2.62
- HIKLHSGEKPFKCHLCNYDCRRRD — lower, 1.58
- HIKLHSGEKPFKCHLCNYVCRRRD — lower, 1.4
- HIKLHSGEKPFKCHLCNYKCRRRD — higher, 3.11
- HIKLHSGEKPFKCHLCNYLCRRRD — higher, 2
- HIKLHSGEKPFKCHLCNEACRRRD — higher, 2.02
- HIKLHSGEKPFKCHLCNAACRRRD — higher, 2.04
- HIKLHSGEKPFKCHLCNDACRRRD — higher, 2.7
- HIKLHSGEKPFKCHLCNTACRRRD — lower, 1.54
- HIKLHSGEKPFKCHLCNHACRRRD — lower, 1.82
- HIKLHSGEKPFKCHLCNNACRRRD — the same, 1.88
- HIKLHSGEKPFKCHLCNWACRRRD — lower, 1.16
- HIKLHSGEKPFKCHLCNKACRRRD — higher, 1.99
- HIKLHSGEKPFKCHLCNLACRRRD — higher, 2.23
- HIKLHSGEKPFKCHLCNFACRRRD — higher, 2.07
- HIKLHSGEKPFKCHLCNRACRRRD — higher, 2.15
- HIKLHSGEKPFKCHLCNQACRRRD — higher, 2.67
- HIKLHSGEKPFKCHLCNSACRRRD — lower, 1.58
- HIKLHSGEKPFKCHLCNPACRRRD — higher, 1.94
- HIKLHSGEKPFKCHLCNGACRRRD — higher, 2.84
- HIKLHSGEKPFKCHLCNCACRRRD — higher, 2.04
- HIKLHSGEKPFKCHLCNIACRRRD — lower, 1.48
- HIKLHSGEKPFKCHLCNMACRRRD — higher, 2.17
- HIKLHSGEKPFKCHLCDYACRRRD — lower, 1.47
- HIKLHSGEKPFKCHLCPYACRRRD — lower, 1.56
- HIKLHSGEKPFKCHLCFYACRRRD — higher, 2.79
- HIKLHSGEKPFKCHLCCYACRRRD — lower, 1.3
- HIKLHSGEKPFKCHLCMYACRRRD — lower, 1.86
- HIKLHSGEKPFKCHLCWYACRRRD — lower, 1.62
- HIKLHSGEKPFKCHLCSYACRRRD — higher, 1.97
- HIKLHSGEKPFKCHLCRYACRRRD — lower, 1.53
- HIKLHSGEKPFKCHLCVYACRRRD — higher, 2.39
- HIKLHSGEKPFKCHLCKYACRRRD — lower, 1.2
- HIKLHSGEKPFKCHLCYYACRRRD — lower, 1.52
- HIKLHSGEKPFKCHLCAYACRRRD — higher, 2.67
- HIKLHSGEKPFKCHLCTYACRRRD — higher, 2.12
- HIKLHSGEKPFKCHLCGYACRRRD — higher, 2.05
- HIKLHSGEKPFKCHLCQYACRRRD — lower, 1.43
- HIKLHSGEKPFKCHLCLYACRRRD — higher, 2.07
- HIKLHSGEKPFKCHLCIYACRRRD — higher, 2.86
- HIKLHSGEKPFKCHLCHYACRRRD — higher, 1.98
- HIKLHSGEKPFKCHLCNYACDRRD — lower, 1.29
- HIKLHSGEKPFKCHLCNYACARRD — higher, 3.46
- HIKLHSGEKPFKCHLCNYACCRRD — lower, 1.78
- HIKLHSGEKPFKCCLCNYACRRRD — higher, 3.78
- HIKLHSGEKPFKCLLCNYACRRRD — the same, 1.88
- HIKLHSGEKPFKCQLCNYACRRRD — lower, 1.83
- HIKLHSGEKPFKCVLCNYACRRRD — higher, 2.23
- HIKLHSGEKPFKCELCNYACRRRD — lower, 1.66
- HIKLHSGEKPFKCALCNYACRRRD — lower, 1.5
- HIKLHSGEKPFKCGLCNYACRRRD — higher, 1.89
- HIKLHSGEKPFKCYLCNYACRRRD — lower, 1.45
- HIKLHSGEKPFKCRLCNYACRRRD — higher, 2.26
- HIKLHSGEKPFKCDLCNYACRRRD — higher, 2.82
- HIKLHSGEKPFKCNLCNYACRRRD — lower, 1.69
- HIKLHSGEKPFKCMLCNYACRRRD — lower, 1.54
- HIKLHSGEKPFKCILCNYACRRRD — lower, 1.55
- HIKLHSGEKPFKCPLCNYACRRRD — lower, 1.83
- HIKLHSGEKPFKCFLCNYACRRRD — higher, 2.32
- HIKLHSGEKPFKCWLCNYACRRRD — higher, 2.23
- HIKLHSGEKPFKCKLCNYACRRRD — higher, 2.39
- HIKLHSGEKPFKCSLCNYACRRRD — higher, 2.09
- HIKLHSGEKPFKCTLCNYACRRRD — higher, 2.42
